According to PMC3642155:

B1: T06 (structured_RNA)
RNA: GAGGAUGGCAGCGGAGAGGAAUGGUGUAGUGUAAGUCAAUUCUACUUUCGUUGCAGCCCACACCACUCUCC

biological target: T7 RNA polymerase (UniProt P00573 1-883); assay: filter binding
Sequence (P00573 whole entry): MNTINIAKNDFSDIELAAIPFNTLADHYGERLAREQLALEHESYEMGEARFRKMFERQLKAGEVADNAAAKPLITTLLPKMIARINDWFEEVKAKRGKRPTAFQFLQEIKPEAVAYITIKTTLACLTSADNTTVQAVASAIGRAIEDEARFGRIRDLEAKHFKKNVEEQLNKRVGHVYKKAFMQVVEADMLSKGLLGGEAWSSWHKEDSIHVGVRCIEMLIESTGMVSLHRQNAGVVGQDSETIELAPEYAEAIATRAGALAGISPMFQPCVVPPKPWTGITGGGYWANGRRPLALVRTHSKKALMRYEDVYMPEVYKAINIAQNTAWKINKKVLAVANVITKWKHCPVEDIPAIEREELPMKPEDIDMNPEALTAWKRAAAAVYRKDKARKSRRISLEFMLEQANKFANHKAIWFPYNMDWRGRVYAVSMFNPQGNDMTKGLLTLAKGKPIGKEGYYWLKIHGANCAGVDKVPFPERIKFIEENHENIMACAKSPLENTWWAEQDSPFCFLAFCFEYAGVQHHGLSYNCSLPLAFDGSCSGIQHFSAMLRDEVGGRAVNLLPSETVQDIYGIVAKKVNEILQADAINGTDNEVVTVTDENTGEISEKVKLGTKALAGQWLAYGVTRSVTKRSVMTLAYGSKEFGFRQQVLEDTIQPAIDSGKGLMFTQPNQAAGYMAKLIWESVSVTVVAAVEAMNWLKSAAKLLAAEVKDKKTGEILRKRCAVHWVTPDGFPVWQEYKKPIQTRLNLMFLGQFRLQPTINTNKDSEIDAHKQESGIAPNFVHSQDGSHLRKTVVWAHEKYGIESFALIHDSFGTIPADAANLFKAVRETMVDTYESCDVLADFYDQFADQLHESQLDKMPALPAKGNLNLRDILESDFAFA

Binder | Kd [nM]
B1 | 8 ± 2.4
GCGUAAGUCAAUUCCACUAUCAUUGCUGC (structured_RNA) [T230-29] | 2.9 ± 0.9
GUGUAGUGUAAGUCAAUUCUACUUUCGUUGCAGCCCAC (structured_RNA) [T06-38] | 10.5 ± 2.1
